We go through one molecule from patent US11312984B2, “High-purity steviol glycosides” (PURECIRCLE SDN BHD, priority 2013, dated 2022).

The nature of the assay: Activity of UGT76G1_Sc for the conversion of Rebaudioside D to Rebaudioside M. The format is biochemical. Conditions: based on initial concentration of Rebaudioside D; 21 h. As for the experimental part:
UGT76G1_Sc was prepared according to EXAMPLE 34. Activity tests were performed at 2 mL scale with 200 μL of lysate for the transformation of Rebaudioside D using 0.5 mM of substrate, 2.5 mM of UDP-Glucose and 3 mM MgCl2 in 50 mM Sodium Phosphate buffer at pH 7.2. Samples were taken and analyzed by HPLC according to the method of EXAMPLE 20.

B1: UGT76G1_Sc (protein, UniProt Q6VAB4 1-458, looked up)
UDP-glycosyltransferase 76G1: MENKTETTVRRRRRIILFPVPFQGHINPILQLANVLYSKGFSITIFHTNFNKPKTSNYPHFTFRFILDNDPQDERISNLPTHGPLAGMRIPIINEHGADELRRELELLMLASEEDEEVSCLITDALWYFAQSVADSLNLRRLVLMTSSLFNFHAHVSLPQFDELGYLDPDDKTRLEEQASGFPMLKVKDIKSAYSNWQILKEILGKMIKQTKASSGVIWNSFKELEESELETVIREIPAPSFLIPLPKHLTASSSSLLDHDRTVFQWLDQQPPSSVLYVSFGSTSEVDEKDFLEIARGLVDSKQSFLWVVRPGFVKGSTWVEPLPDGFLGERGRIVKWVPQQEVLAHGAIGAFWTHSGWNSTLESVCEGVPMIFSDFGLDQPLNARYMSDVLKVGVYLENGWERGEIANAIRRVMVDEEGEYIRQNARVLKQKADVSLMKGGSSYESLESLVSYISSL
modifications: expressed in Saccharomyces cerevisiae
In the case of B1, the “Rebaudioside M selectivity (Retention Time ~6.7 min)” value was determined as 100%.
